Drawing on US20240084276, this text covers activity for one substance.

Assay in all cases: cell_activity
In data set [1] the test system is T1, MIT 25-26L.35 (synthetic construct).
T1 sequence: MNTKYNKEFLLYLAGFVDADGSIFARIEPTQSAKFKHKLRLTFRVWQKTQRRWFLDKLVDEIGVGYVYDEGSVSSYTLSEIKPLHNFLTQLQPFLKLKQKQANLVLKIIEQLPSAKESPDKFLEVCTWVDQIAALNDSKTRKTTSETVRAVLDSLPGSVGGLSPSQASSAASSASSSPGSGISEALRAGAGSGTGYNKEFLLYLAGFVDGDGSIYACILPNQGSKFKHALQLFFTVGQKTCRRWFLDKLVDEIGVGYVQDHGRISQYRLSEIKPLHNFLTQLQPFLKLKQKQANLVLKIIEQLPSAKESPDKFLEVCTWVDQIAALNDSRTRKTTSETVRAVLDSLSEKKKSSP
The note with it: 500 ng mRNA, FlpIn CHO.

The test system of data set [2] is T2, MIT 25-26x.48 (synthetic construct).
T2 sequence: T1 sequence with W46H, E70T, S75D, Q259N, H261F, R263S, H276Y
Conditions: 500 ng mRNA, FlpIn CHO.

Data set [3] relates to T3, MIT 25-26x.91 (synthetic construct).
T3 sequence: T1 sequence with A19S, W46H, E70T, S75D, E80Q, Q259H, R263T
Conditions: 500 ng mRNA, FlpIn CHO; 16% in repeat (FIG. 4).

Where a chain is given by its changes, count along the chain named.

With MIT 25-26 wild-type site (m.3243A), the values for the activity in data set [1], in data set [2] and in data set [3] were 2 % indels, 44 % indels and 20 % indels, respectively.
